Experimental data from patent publication US10376603B2, “Engineered fluorinated biomaterials” (New York University, priority 2015, dated 2019).

How the values were obtained:
Format in all cases: physicochemical
[1] = UV-Vis temperature transition (Tt) at 320 nm; conditions: 50 mM Na2HPO4, 0.5 M NaCl, pH 8.0
Method: Proteins were characterized for their temperature transition (Tt) behavior at a wavelength of 320 nm using a UV-Vis Cary-50 (Varian Inc., Cary, N.C.) equipped with a TC125 temperature regulator (Quantum Northwest, Liberty Lake, Wash.). Samples were heated at a rate of 1° C./minute from 15° C. to 85° C. The Tt was determined by taking the first derivative of the normalized absorbance (320 nm) as a function of temperature.

[2] = Doxorubicin loading/encapsulation by gel filtration and absorbance at 485 nm; conditions: 100 μM free doxorubicin, 4° C., 2 hours
Method: A mixture of 100 μM free doxorubicin (DOX) (see the extraction method below) and either CE2-RGD or CE2-RGD-TFL and standards (100 μM, 75 μM, 50 μM, 25 μM, 10 μM, 5 μM and 0 μM) were incubated at 4° C. for 2 hours in the dark. After this incubation period, the mixtures were subjected to G-25 Sephadex (Sigma-Aldrich) gel filtration chromatography with fifteen elutions of 50 mM Na2HPO4, 0.5 M NaCl, pH 8.0 at room temperature. The eluted fractions were subjected to absorbance readings ranging from 420-600 nm (Molecular Devices Spectramax M2). The eluted fraction with highest absorbance reading at 485 nm was incorporated in the standard curve trendline equation to determine the total concentration of DOX bound to the protein. That protein sample was also subjected to the BCA assay enhanced protocol to determine the total protein concentration.
Extraction of DOX from a doxorubicin-HCl (DOX-HCl) was required to achieve free hydrophobic doxorubicin for pore encapsulation. […] The final concentration of free DOX was determined by generating a standard curve from absorbance of DOX-HCl from 420-600 nm and incorporating the free DOX into the trendline equation. The absorbance measurement for free DOX concentration determination was taken at 485 nm.

[3] = Transmission electron microscopy of particles; conditions: 0.5 mg/mL
Method: Transmission electron microscopy (TEM) experiments were undertaken to visualize and confirm particle sizes. The CE2-RGD-TFL (0.5 mg/mL) was heated to 20° C. or 50° C. for 1.5 hours followed by application of the protein onto copper square mesh TEM grids and 1% uranyl acetate negative staining. The TEM grids were imaged using a FEI Titan Halo 300 kV electron microscope.

[4] = Circular dichroism secondary structure
Method: Circular dichroism (CD) spectroscopy was used to confirm the secondary structure. This was accomplished using a Jasco J-815 CD spectrometer with a PTC-423 S single position Peltier temperature control system. For CD experiments assessing the protein structure alone, protein concentrations were kept constant at 0.200 mg/mL in of 50 mM Na2HPO4, 0.5 M NaCl, pH 8.0. The wavelength spectrum was measured over the range of 200-300 nm with a bandwidth (step size) of 1 nm. The scanning mode was continuous at 20 nm/minute. All wavelength CD runs were conducted at 4° C.
In terms of calculations for CD analysis, molar residue ellipticity (θMRE) was calculated from ellipticity (θ) using the following equation: (1) θMRE=θ/(10*Protein Conc.*Path Length*Length of Sequence)

[5] = Dynamic light scattering as a function of temperature; conditions: doxorubicin loaded versus unloaded
Method: Dynamic light scattering (DLS) measurements were performed on a Zetasizer Nano Series model Nano ZS90 in a type 21 quartz cuvette with the applied settings: material protein (refractive index 1.450), absorption 0.001, dispersant PBS with a viscosity of 1.0200 cP and refractive index of 1.335. Measurements were taken in triplicates, conducting 10 runs for each measurement, with a delay time of 2 seconds. Approximately, 1.0 mL of 0.5, 0.75 or 1.0 mg/mL CE2-RGD-TFL or CE2-RGD in 50 mM Na2HPO4, 0.5 M NaCl, pH 8.0 was then added to the cell.

B1: CE2-RGD-TFL: fluorinated protein block copolymer, SEQ ID NO:18: COMPcc domain flanked by RGD linkers plus elastin-like domain; all 11 leucines as 5,5,5-trifluoroleucine (protein)
chain: MRGSHHHHHHGSACELAARGDATATATATAACGDLAPQMLRELQETNAALQDVRELLRQQVKEITFLKNTVMESDASGLQAARGDATATATATAVDKPIAASAVPGVGVPGVGVPGFGVPGVGVPGVGVPGVGVPGVGVPGFGVPGVGVPGVGVPLEGSGTGAKLN
modifications: all leucines as 5,5,5-trifluoroleucine
notes: all 11 leucines as 5,5,5-trifluoroleucine
[1]; Conc. 0.20 mg/mL
  Tt (transition temperature): 52.04 ± 0.84 °C
[1]; Conc. 0.50 mg/mL
  Tt (transition temperature): 47.87 ± 0.72 °C
[1]; Conc. 0.75 mg/mL
  Tt (transition temperature): 46.36 ± 0.03 °C
[1]; Conc. 1.00 mg/mL
  Tt (transition temperature): 45.71 ± 0.51 °C
[2]
  available doxorubicin encapsulated upon saturation: 49.1%
  doxorubicin loading per milligram of protein: 29.90±2.68 μg per milligram
[3]; 50° C. for 1.5 hours
  particle appearance (TEM): amorphous aggregates of no discernible uniformity in size
[3]; 1.5 hour incubation at 20° C.
  particle diameter (TEM): 30 nm
[4]; 0.200 mg/mL, 4° C.
  secondary structure (circular dichroism) versus CE2-RGD: less structure
[4]; doxorubicin loaded versus unloaded
  secondary structure (circular dichroism) upon loading of doxorubicin: increase in secondary structure
[5]
  onset of temperature-driven coacervation (DLS) upon loading of doxorubicin: delay in the onset of temperature-driven coacervation
